These results are taken from US20220347267A1, “METHODS TO IMPROVE PATIENT RESPONSE TO IMMUNE CHECKPOINT INHIBITORS AND FUNCTIONAL TESTS TO PREDICT RESPONSE” (Biomarker Strategies, LLC, priority 2019, published 2022).

Common to all, as to assay: PD-L1 confocal microscopy, IFNγ stimulation
What all share (type): cell-based, human

For one test, the system named is H1299 cells. The source says: (§1) To obtain fluorescent specimens, similar procedures are used when compared to flow cytometry. The sample is stained with a primary antibody that is specific for a protein of interest. The primary antibody can be conjugated to a fluorescent molecule or a secondary antibody can be used that attaches to the primary antibody. For intracellular staining of cells, the specimen can be fixed and permeabilized using methanol, formalin or a fixative containing a detergent. Subsequently, the specimen is stained with primary and/or secondary antibodies. For this dataset, samples were stained for PD-L1 in suspension using the same protocol that was used for the flow cytometry dataset. The protocol used was as follows:
(§2) Samples (150 uL per tube) were first incubated with a blocking reagent (BD cat #564219, Lot #9305316) at 1:20 for 15 min at room temperature. Alexa 488-conjugated PD-L1 antibody (CST cat #25048, Lot #2) and Alexa 488-conjugated isotype antibody (CST cat #2975, Lot #16) were added to experimental samples and isotype control samples, respectively, at a manufacturer recommended dilution of 1:50 and the samples were incubated for 30 min at room temperature. Other fluorophore-conjugates and PD-L1 antibodies, including those targeting different epitopes, can be readily used. Additionally, antibodies detecting other biomarkers with appropriate processing (e.g. permeabilization of cells) to predict response (e.g. p-STAT-1) can be used. Following the incubation with an antibody, 1 mL of 2% FBS in PBS was added to each tube to dilute the antibody. Samples were then centrifuged at 200 rcf for 5 min. Supernatant was carefully aspirated and 200 uL of 10% neutral buffered formalin (NBF) was added. Samples were then fixed for 10 min at room temperature. NBF was diluted with 1 mL of 2% FBS in PBS and the samples were centrifuged at 200 rcf for 5 min. Supernatant was aspirated and the cells were resuspended in 0.5 mL of 2% FBS in PBS for flow cytometric analysis. In this experiment, 10% NBF was used to fix cells, but other fixatives, for example, 4% paraformaldehyde can be used. For localization experiments an anti-phosphotyrosine antibody, anti-human/mouse, PE-Vio® 770 (Miltenyi Biotec, Cat #130-109-112) and an anti-PD-L1 antibody, anti-human, Brilliant Violet 650 (BV650; BD Biosciences, Cat #563740) were used. […]
(§3) PD-L1 was assessed in four cell lines (FIG. 35A). PD-L1 was quantified by analyzing FITC-PD-L1 using an 8-bit photomultiplier tube and quantified as raw arbitrary units (FIG. 35B). The PD-L1 expression of the four cell lines was quantified in treated and untreated conditions. […] Thus, PD-L1 expression can be measured qualitatively and quantitatively using confocal microscopy and other fluorescent microscopy techniques.

A further test has as its system H1650 cells.
Source text: as §1, §2, §3

For a further test, the system named is H460 cells.
Source text: as §1, §2, §3

Another test deals with SKMES1 cells.
Source text: as §1, §2, §3

B1: IFNγ: human IFNγ, modulator (10 ng/ml; Sigma Aldrich) (protein, UniProt P01579 24-161, looked up)
Interferon gamma: QDPYVKEAENLKKYFNAGHSDVADNGTLFLGILKNWKEESDRKIMQSQIVSFYFKLFKNFKDDQSIQKSVETIKEDMNVKFFNSNKKKRDDFEKLTNYSVTDLNVQRKAIHELIQVMAELSPAAKTGKRKRSQMLFRG
B1: the “PD-L1 expression by confocal microscopy, untreated and IFNγ treated” value is listed as “negative” in the test with H1299 cells, “negative” in the test with H1650 cells, “adaptive expression” in the test with H460 cells and “innate expression” in the test on SKMES1 cells.
